Reference: article PMC11506642, “Cooperative Substructure and Energetics of Allosteric Regulation of the Catalytic Core of the E3 Ubiquitin Ligase Parkin by Phosphorylated Ubiquitin” (Biomolecules, 2024)

Target: T1, phosphorylated ubiquitin (UniProt P0CG47 1-76, phosphorylated (site not given))
T1 construct: ubiquitin, the mature cut product of its precursor; also called pUb; source: prepared as described [16]
Experiment: HDX-MS; native-state hydrogen exchange with pepsin fragmentation MS; 20 mM HEPES, 150 mM NaCl, 10 uM ZnCl2, 1 mM TCEP, 2.5% glycerol, pH 7.0, 20 °C, urea up to 4 M; ~7 uM Parkin(∆Ubl), ~12 uM pUb
Details: both partners purified

binding result: binds
B1: Parkin(∆Ubl) (domain or fragment, human)
chain: SSGSPAGRSIYNSFYVYCKGPCQRVQPGKLRVQCSTCRQATLTLTQGPSCWDDVLIPNRMSGECQSPHCPGTSAEFFFKCGAHPTSDKETSVALHLIATNSRNITCITCTDVRSPVLVFQCNSRHVICLDCFHLYCVTRLNDRQFVHDPQLGYSLPCVAGCPNSLIKELHHFRILGEEQYNRYQQYGAEECVLQMGGVLCPRPGCGAGLLPEPDQRKVTCEGGNGLGCGFAFCRECKEAYHEGECSAVFEASGTTTQAYRVDERAAEQARWEAASKETIKKTTKPCPRCHVPVEKNGGCMHMKCPQPQCRLEWCWNCGCEWNRVCMGDHWFDV
notes: two extra serines that precede the Parkin residues in the construct; E3 ubiquitin ligase Parkin, human, canonical isoform (Swiss-Prot O60260-1), residues 135 through 465; RING0, RING1, IBR, REP and RING2 domains, without the Ubl domain and linker; The introduction defines the core as residues 137-461; the methods give the construct as (SS) plus 135-465; The His-SUMO fusion was cut with TEV …
